Source: the supplement of paper PMC9233669
Fewer inactive variants are shown than the library holds.

How the values were obtained:
[1] = test system: biotinyl-Phe-oxazolone; experiment: self-aminoacylation, catalytic enhancement (BFO) (fold over background); higher = more active; k-Seq, kA / k0A0; sequences stand for … in GGGAAUGGAUCCACAUCUACGAAUUC…UUCACUGCAGACUUGACGAAGCUG
Outline: (§1)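 Working in 50 μL HEPES/NaCl/KCl/MgCl2/CaCl2 buffer with 5% acetonitrile at pH 6.9–7.0, mutagenized RNA pools (0.43 μM; 21-nt variable region) were reacted with 2–1250 μM of each biotinyl-aminoacyl-oxazolone for 90 minutes at room temperature. Streptavidin capture followed, with quantification by triplicate qPCR and Illumina sequencing. Catalytic enhancement is reported as median kA over the uncatalyzed rate, the low-activity peak of a bimodal Gaussian fit to the data.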

[2] = test system: biotinyl-Ile-oxazolone; experiment: self-aminoacylation, catalytic enhancement (BIO) (fold over background); higher = more active; k-Seq, kA / k0A0; sequences stand for … in GGGAAUGGAUCCACAUCUACGAAUUC…UUCACUGCAGACUUGACGAAGCUG
Outline: as §1

[3] = test system: biotinyl-Met-oxazolone; experiment: self-aminoacylation, catalytic enhancement (BMO) (fold over background); higher = more active; k-Seq, kA / k0A0; sequences stand for … in GGGAAUGGAUCCACAUCUACGAAUUC…UUCACUGCAGACUUGACGAAGCUG
Outline: as §1

[4] = test system: biotinyl-Val-oxazolone; experiment: self-aminoacylation, catalytic enhancement (BVO) (fold over background); higher = more active; k-Seq, kA / k0A0; sequences stand for … in GGGAAUGGAUCCACAUCUACGAAUUC…UUCACUGCAGACUUGACGAAGCUG
Outline: as §1

[5] = test system: biotinyl-Leu-oxazolone; experiment: self-aminoacylation, catalytic enhancement (BLO) (fold over background); higher = more active; k-Seq, kA / k0A0; sequences stand for … in GGGAAUGGAUCCACAUCUACGAAUUC…UUCACUGCAGACUUGACGAAGCUG
Outline: as §1

[6] = test system: biotinyl-Trp-oxazolone; experiment: self-aminoacylation, catalytic enhancement (BWO) (fold over background); higher = more active; k-Seq, kA / k0A0; sequences stand for … in GGGAAUGGAUCCACAUCUACGAAUUC…UUCACUGCAGACUUGACGAAGCUG
Outline: as §1

Sequence	self-aminoacylation [1]	self-aminoacylation [2]	self-aminoacylation [3]	self-aminoacylation [4]	self-aminoacylation [5]	self-aminoacylation [6]
AUUACCCUGGUCUUGGAGUGA [Fam2.1 aminoacylation ribozyme variant]	5.63	2.27	2.24	1.98	3.23	4.3
AUUACCCUGGUGAUCGACUGA [Fam2.1 aminoacylation ribozyme variant]	0.543	1.05	0.951	1.02	1.12	0.743
AUUACCCUGGUGAUCGAGUCA [Fam2.1 aminoacylation ribozyme variant]	0.521	0.912	0.978	0.859	0.741	0.415
AUUACCCUGGUGAUGGAGUGA [Fam2.1 aminoacylation ribozyme variant]	31.1	2.62	5.67	2.55	5.75	5.69
AUUACCCUGGUGAUUGAGUGA [Fam2.1 aminoacylation ribozyme variant]	57.1	3.55	7.66	3.55	7.64	9.23
AUUACCCUGGUUAACGAGUGA [Fam2.1 aminoacylation ribozyme variant]	106	5.85	14.1	6.35	14.4	17.3
AUUACCCUGGUUACCGAGUGA [Fam2.1 aminoacylation ribozyme variant]	78.8	5.43	11.9	5.65	12.6	12.3
AUUACCCUGGUUAGCGAGUGA [Fam2.1 aminoacylation ribozyme variant]	22.1	2.2	4.21	2.1	4.28	5.27
AUUACCCUGGUUAUAGAGUGA [Fam2.1 aminoacylation ribozyme variant]	117	6.6	16.7	6.47	16	19.1
AUUACCCUGGUUAUCGCGUGA [Fam2.1 aminoacylation ribozyme variant]	93.6	4.99	12.4	6.04	11.6	13.5
AUUACCCUGGUUCUCGAGUGA [Fam2.1 aminoacylation ribozyme variant]	8.08	1.78	2.08	2.2	3.1	3.34
AUUACCCUGGUUGUCGAGUGA [Fam2.1 aminoacylation ribozyme variant]	1.97	1.38	1.91	1.33	1.85	3.23
AUUACCCUGUGCAUCGAGUGA [Fam2.1 aminoacylation ribozyme variant]	16.8	2.47	6.14	3.05	5.11	5.89
AUUACCCUGUUCAGCGAGUGA [Fam2.1 aminoacylation ribozyme variant]	14.4	2.51	5.05	2.96	4.4	6.39
AUUACCCUGUUCAUCGCGUGA [Fam2.1 aminoacylation ribozyme variant]	171	9.25	23.5	11.7	25.1	25.5
AUUACCCUUGACAUCGAGUGA [Fam2.1 aminoacylation ribozyme variant]	50.8	4.31	10.8	5.25	11	13.5
AUUACCCUUGUCAACGAGUGA [Fam2.1 aminoacylation ribozyme variant]	21.7	3.27	5.49	3.44	6.71	7.03
AUUACCCUUGUCACCGAGUGA [Fam2.1 aminoacylation ribozyme variant]	50.2	4.01	8.49	4.31	9.28	11.1
AUUACCCUUGUCAUAGAGUGA [Fam2.1 aminoacylation ribozyme variant]	36.6	4.36	8.7	4.59	8.53	11
AUUACCCUUGUCAUCCAGUGA [Fam2.1 aminoacylation ribozyme variant]	9.92	2.21	3.41	2.25	3.44	3.96
AUUACCCUUGUCAUCGAGCGA [Fam2.1 aminoacylation ribozyme variant]	0.755	1.49	1.12	1.19	1.67	0.631
AUUACCCUUGUUAUCGAGUGA [Fam2.1 aminoacylation ribozyme variant]	116	7.09	15.9	6.96	14.7	19.6
AUUACCGUGGUCAUCCAGUGA [Fam2.1 aminoacylation ribozyme variant]	28.8	3.52	5.39	3.32	5.29	6.67
AUUACCGUGGUCAUCGAGAGA [Fam2.1 aminoacylation ribozyme variant]	0.92	1.11	0.605	1.18	0.723	0.794
AUUACCGUGGUCAUCGAGUAA [Fam2.1 aminoacylation ribozyme variant]	1.2	1.42	1.35	1.58	1.56	1.93
AUUACCGUGGUCAUCGUGUGA [Fam2.1 aminoacylation ribozyme variant]	5.4	1.3	1.64	1.25	2.49	2.03

Sequence	self-aminoacylation [1]	self-aminoacylation [2]	self-aminoacylation [3]	self-aminoacylation [4]	self-aminoacylation [5]	self-aminoacylation [6]
AUUACCGUGGUCAUGGAGUGA [Fam2.1 aminoacylation ribozyme variant]	12.2	2.27	3.21	2.37	3.43	3.69
AUUACCUUGGACAUCGAGUGA [Fam2.1 aminoacylation ribozyme variant]	26.3	3.16	5.7	2.9	6.08	7.94
AUUACCUUGGUCAUCGAGUGG [Fam2.1 aminoacylation ribozyme variant]	1.64	1.67	2.08	1.45	2.13	0.873
AUUACCUUGGUCAUUGAGUGA [Fam2.1 aminoacylation ribozyme variant]	32.4	4.08	8.51	4.11	7.89	10.2
AUUACGCGGGUCAUCGAGUGA [Fam2.1 aminoacylation ribozyme variant]	22.7	3.23	5.54	3.31	4.86	5.54
AUUACGCUGGACAUCGAGUGA [Fam2.1 aminoacylation ribozyme variant]	16.1	2.63	4.42	2.98	4.51	4.65
AUUACGCUGGCCAUCGAGUGA [Fam2.1 aminoacylation ribozyme variant]	32.4	4.5	6.9	4.76	5.89	8.46
AUUACGCUGGUCAUAGAGUGA [Fam2.1 aminoacylation ribozyme variant]	7.49	2.33	3.31	2.23	3.54	4.14
AUUACGCUGGUCAUCCAGUGA [Fam2.1 aminoacylation ribozyme variant]	12.8	2.27	3.63	1.96	3.99	4.31
AUUACGCUGGUCAUCGAGUAA [Fam2.1 aminoacylation ribozyme variant]	0.975	1.6	1.43	1.53	1.26	1.8
AUUACGCUGGUCAUCGAGUGC [Fam2.1 aminoacylation ribozyme variant]	1.4	1.02	1.44	1.33	1.31	1.24
AUUACGCUGGUCAUCGGGUGA [Fam2.1 aminoacylation ribozyme variant]	60.9	6.21	8.98	7.46	7.84	9.36
AUUACGCUGUUCAUCGAGUGA [Fam2.1 aminoacylation ribozyme variant]	4.19	2.4	3.87	2.71	3.57	4.58
AUUACUCCGGUCAUCGAGUGA [Fam2.1 aminoacylation ribozyme variant]	16	2.81	5.22	2.64	5.43	5.76
AUUACUCUGGUCAGCGAGUGA [Fam2.1 aminoacylation ribozyme variant]	17.6	3.29	5.21	3.13	5.83	5.85
AUUACUCUGGUCAUCCAGUGA [Fam2.1 aminoacylation ribozyme variant]	17.3	3.2	5.01	2.74	5.29	6.01
AUUACUCUGGUCAUUGAGUGA [Fam2.1 aminoacylation ribozyme variant]	32.7	4.15	7.88	3.61	8.45	9.3
AUUACUGUGGUCAUCGAGUGA [Fam2.1 aminoacylation ribozyme variant]	14.1	2.65	4.65	2.56	4.25	5.16
AUUAGACUGGUCAUCGAGUGA [Fam2.1 aminoacylation ribozyme variant]	7.88	3	4.4	2.56	3.73	4.81
AUUAGCCUGAUCAUCGAGUGA [Fam2.1 aminoacylation ribozyme variant]	46.7	4.82	10.4	4.4	10.6	11
AUUAGCCUGGUCAUCGAGUGA [Fam2.1 aminoacylation ribozyme variant]	21.7	4.61	7.22	4.55	7.65	9.2
AUUAGCCUGGUCAUCGAGUGU [Fam2.1 aminoacylation ribozyme variant]	3.87	2.76	4.71	3.14	4.18	5.12
AUUAGCCUUGUCAUCGAGUGA [Fam2.1 aminoacylation ribozyme variant]	6.72	2.85	3.73	2.76	3.97	4.07
AUUAUCCGGGUCAUCGAGUGA [Fam2.1 aminoacylation ribozyme variant]	45.7	4.14	8.26	4.04	8.08	8.13
AUUAUCCUGGUCAACGAGUGA [Fam2.1 aminoacylation ribozyme variant]	30.1	3.69	6.62	3.87	8.02	7.67
